# According to US20170015742A1 (published 2017):
# Assays:
# Assay in all cases: cell-based or functional assay
# [1] = target: recombinant human PDGF-BB (human, UniProt P01127 82-190)
# Target sequence in this assay (P01127 82-190 limits assumed): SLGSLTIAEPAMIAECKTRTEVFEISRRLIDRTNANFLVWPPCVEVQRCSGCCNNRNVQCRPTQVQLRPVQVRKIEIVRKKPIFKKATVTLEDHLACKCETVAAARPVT
# [2] = target: recombinant human VEGF165 (human, UniProt P15692 207-395)
# [3] = target: recombinant human PDGF-BB (human, UniProt P01127 82-190); remark: listed apart in the source
# Target sequence in this assay (P01127 82-190 limits assumed): as above
# Chain of recombinant human VEGF165 (P15692 other isoform, or with tags, fused parts or gaps limits assumed): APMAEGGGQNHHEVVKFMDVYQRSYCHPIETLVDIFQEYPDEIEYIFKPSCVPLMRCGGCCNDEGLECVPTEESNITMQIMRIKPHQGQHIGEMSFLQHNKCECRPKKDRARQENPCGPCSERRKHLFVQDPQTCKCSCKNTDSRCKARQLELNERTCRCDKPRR
binder,measurement,setting,value
"hBDI-9E8.1 (antibody, V domains shown) VH: EVTLRESGPALVKPTQTLTLTCTFSGFSLSTYGMGVGWIRQPPGKALEWLANIWWDDDKYYNPSLKNRLTISKDTSKNQVVLTMTNMDPVDTATYYCARIESIGTTYSFDYWGQGTMVTVSS VL: NFMLTQPHSVSESPGKTVTISCERSSGDIGDSYVSWYQQRPGSSPTTVIYADDQRPSGVPDRFSGSIDSSSNSASLTISGLKTEDEADYYCQSYDINIDIVFGGGTKLTVL","hPDGF-BB IC50 (nM), hPDGF-BB-induced NIH-3T3 cell proliferation",[1],> 5 nM
"hBDI-9E8.2 (antibody, V domains shown) VH: EVTLRESGPALVKPTQTLTLTCTFSGFSLSTYGMGVGWIRQPPGKALEWLANIWWDDDKYYNPSLKNRLTISKDTSKNQVVLTMTNMDPVDTATYYCARIESIGTTYSFDYWGQGTMVTVSS VL: NFMLTQPHSVSESPGKTVTISCERSSGDIGDSYVSWYQQRPGSPPTNVIYADDQRPSGVPDRFSGSIDSSSNSASLTISGLKTEDEADYFCQSYDINIDIVFGGGTKLTVL","hPDGF-BB IC50 (nM), hPDGF-BB-induced NIH-3T3 cell proliferation",[1],> 5 nM
"hBDI-9E8.5 (antibody, V domains shown) VH: EVTLRESGPALVKPTQTLTLTCTFSGFSLSTYGMGVGWIRQPPGKGLEWLANIWWDDDKYYNPSLKNRLTISKDTSKNQAVLTITNMDPVDTATYYCARIESIGTTYSFDYWGQGTMVTVSS VL: NFMLTQPHSVSESPGKTVTISCERSSGDIGDSYVSWYQQRPGSSPTTVIYADDQRPSGVPDRFSGSIDSSSNSASLTISGLKTEDEADYYCQSYDINIDIVFGGGTKLTVL","hPDGF-BB IC50 (nM), hPDGF-BB-induced NIH-3T3 cell proliferation",[1],> 5 nM
"hBDI-9E8.6 (antibody, V domains shown) VH: EVTLRESGPALVKPTQTLTLTCTFSGFSLSTYGMGVGWIRQPPGKGLEWLANIWWDDDKYYNPSLKNRLTISKDTSKNQAVLTITNMDPVDTATYYCARIESIGTTYSFDYWGQGTMVTVSS VL: NFMLTQPHSVSESPGKTVTISCERSSGDIGDSYVSWYQQRPGSPPTNVIYADDQRPSGVPDRFSGSIDSSSNSASLTISGLKTEDEADYFCQSYDINIDIVFGGGTKLTVL","hPDGF-BB IC50 (nM), hPDGF-BB-induced NIH-3T3 cell proliferation",[1],> 5 nM
"1E3.4_GS_3E2.1 (bispecific antibody, human IgG1, kappa, L234A L235A) heavy: EIQLVQSGSELKKPGASVKVSCKASGYPFTNSGMYWVKQAPGQGLEYMGWINTEAGKPTYADDFKGRFVFSLDTSVSTAYLQISSLKAEDTAVYFCARWGYISDNSYGWFDYWGQGTLVTVSSGGGGSGGGGSEVQLVQSGAEVKKPGSSVKVSCKASGYTFTESYMYWVKQAPGQGLELIGRIDPEDGSTDYVEKFKNKATLTADKSTSTAYMELSSLRSEDTAVYFCARFGARSYFYPMDAWGQGTTVTVSSASTKGPSVFPLAPSSKSTSGGTAALGCLVKDYFPEPVTVSWNSGALTSGVHTFPAVLQSSGLYSLSSVVTVPSSSLGTQTYICNVNHKPSNTKVDKKVEPKSCDKTHTCPPCPAPEAAGGPSVFLFPPKPKDTLMISRTPEVTCVVVDVSHEDPEVKFNWYVDGVEVHNAKTKPREEQYNSTYRVVSVLTVLHQDWLNGKEYKCKVSNKALPAPIEKTISKAKGQPREPQVYTLPPSREEMTKNQVSLTCLVKGFYPSDIAVEWESNGQPENNYKTTPPVLDSDGSFFLYSKLTVDKSRWQQGNVFSCSVMHEALHNAYTQKSLSLSPGK light: ATQLTQSPSSLSASVGDRVTISCRASEGVYSYMHWYQQKPGKQPKLLIYKASNLASGVPSRFSGSGSGTDFTLTISSLQPEDFATYFCHQNWNDPLTFGQGTKLEIKGGSGGGGSGGETVLTQSPATLSLSPGERATLSCRASESVSTLMHWYQQKPGQQPRLLIYGASNLESGVPARFSGSGSGTDFTLTISSLEPEDFAVYFCQQSWNDPWTFGGGTKVEIKRTVAAPSVFIFPPSDEQLKSGTASVVCLLNNFYPREAKVQWKVDNALQSGNSQESVTEQDSKDSTYSLSSTLTLSKADYEKHKVYACEVTHQGLSSPVTKSFNRGEC",Potency IC50 (nM) HMVEC-d hVEGF165,[2],0.043 nM
same,Potency IC50 (nM) NIH-3T3 hPDGF-BB,[3],6.25 nM
"CL-33675_GS_1B10.1 (bispecific antibody, human IgG1, kappa, L234A L235A) heavy: EVTLRESGPALVKPTQTLTLTCTFSGFSLSTYGMGVGWIRQPPGKALEWLANIWWDDDKYYNPSLKNRLTISKDTSKNQVVLTMTNMDPVDTATYYCARIESSGPKYSFDYWGQGTMVTVSSGGGGSGGGGSEVQLVESGGGLVQPGGSLRLSCAASGFSFSKYDMAWFRQAPGKGLEWVASITTSGVGTYYRDSVKGRFTVSRDNAKSTLYLQMNSLRAEDTAVYYCARGYGAMDAWGQGTTVTVSSASTKGPSVFPLAPSSKSTSGGTAALGCLVKDYFPEPVTVSWNSGALTSGVHTFPAVLQSSGLYSLSSVVTVPSSSLGTQTYICNVNHKPSNTKVDKKVEPKSCDKTHTCPPCPAPEAAGGPSVFLFPPKPKDTLMISRTPEVTCVVVDVSHEDPEVKFNWYVDGVEVHNAKTKPREEQYNSTYRVVSVLTVLHQDWLNGKEYKCKVSNKALPAPIEKTISKAKGQPREPQVYTLPPSREEMTKNQVSLTCLVKGFYPSDIAVEWESNGQPENNYKTTPPVLDSDGSFFLYSKLTVDKSRWQQGNVFSCSVMHEALHNAYTQKSLSLSPGK light: EIVLTQSPGTLSLSPGERATLSCRASSGSIWYSFVSWYQQKPGQAPRLLIYADDQRASGIPDRFSGSGSGTDFTLTISRLEPEDFAVYYCQSYGINIDVVFGGGTKVEIKGGSGGGGSGGDIQMTQSPSSLSASVGDRVTITCKASQDIDDYLSWYQQKPGKSPKLVIYAATRLADGVPSRFSGSGSGTDYTLTISSLQPEDFATYYCLQSSSTPWTFGGGTKVEIKRTVAAPSVFIFPPSDEQLKSGTASVVCLLNNFYPREAKVQWKVDNALQSGNSQESVTEQDSKDSTYSLSSTLTLSKADYEKHKVYACEVTHQGLSSPVTKSFNRGEC",Potency IC50 (nM) HMVEC-d hVEGF165,[2],0.265 nM
same,Potency IC50 (nM) NIH-3T3 hPDGF-BB,[3],0.11 nM
"CL-33675_GS_4G8.5 (bispecific antibody, human IgG1, kappa, L234A L235A) heavy: EVTLRESGPALVKPTQTLTLTCTFSGFSLSTYGMGVGWIRQPPGKALEWLANIWWDDDKYYNPSLKNRLTISKDTSKNQVVLTMTNMDPVDTATYYCARIESSGPKYSFDYWGQGTMVTVSSGGGGSGGGGSEIQLVQSGSELKKPGASVKVSCKASGYTFTNYGMYWVRQAPGQGLEYMGWINTETGKPTYADDFKGRFVFSLDTSVSTAYLQISSLKAEDTAVYFCARTNYYYRSYIFYFDYWGQGTMVTVSSASTKGPSVFPLAPSSKSTSGGTAALGCLVKDYFPEPVTVSWNSGALTSGVHTFPAVLQSSGLYSLSSVVTVPSSSLGTQTYICNVNHKPSNTKVDKKVEPKSCDKTHTCPPCPAPEAAGGPSVFLFPPKPKDTLMISRTPEVTCVVVDVSHEDPEVKFNWYVDGVEVHNAKTKPREEQYNSTYRVVSVLTVLHQDWLNGKEYKCKVSNKALPAPIEKTISKAKGQPREPQVYTLPPSREEMTKNQVSLTCLVKGFYPSDIAVEWESNGQPENNYKTTPPVLDSDGSFFLYSKLTVDKSRWQQGNVFSCSVMHEALHNAYTQKSLSLSPGK light: EIVLTQSPGTLSLSPGERATLSCRASSGSIWYSFVSWYQQKPGQAPRLLIYADDQRASGIPDRFSGSGSGTDFTLTISRLEPEDFAVYYCQSYGINIDVVFGGGTKVEIKGGSGGGGSGGATQLTQSPSLSASVGDRVTITCRASESVSTHMHWYQQKPGKQPKLLIYGASNLESGVPSRFSGSGSGTDFTLTISSLQPEDFATYFCQQSWNDPFTFGQGTKLEIKRTVAAPSVFIFPPSDEQLKSGTASVVCLLNNFYPREAKVQWKVDNALQSGNSQESVTEQDSKDSTYSLSSTLTLSKADYEKHKVYACEVTHQGLSSPVTKSFNRGEC",Potency IC50 (nM) HMVEC-d hVEGF165,[2],0.219 nM
same,Potency IC50 (nM) NIH-3T3 hPDGF-BB,[3],0.035 nM
"3E2.1_GS_4G8.5 (bispecific antibody, human IgG1, kappa, L234A L235A) heavy: EVQLVQSGAEVKKPGSSVKVSCKASGYTFTESYMYWVKQAPGQGLELIGRIDPEDGSTDYVEKFKNKATLTADKSTSTAYMELSSLRSEDTAVYFCARFGARSYFYPMDAWGQGTTVTVSSGGGGSGGGGSEIQLVQSGSELKKPGASVKVSCKASGYTFTNYGMYWVRQAPGQGLEYMGWINTETGKPTYADDFKGRFVFSLDTSVSTAYLQISSLKAEDTAVYFCARTNYYYRSYIFYFDYWGQGTMVTVSSASTKGPSVFPLAPSSKSTSGGTAALGCLVKDYFPEPVTVSWNSGALTSGVHTFPAVLQSSGLYSLSSVVTVPSSSLGTQTYICNVNHKPSNTKVDKKVEPKSCDKTHTCPPCPAPEAAGGPSVFLFPPKPKDTLMISRTPEVTCVVVDVSHEDPEVKFNWYVDGVEVHNAKTKPREEQYNSTYRVVSVLTVLHQDWLNGKEYKCKVSNKALPAPIEKTISKAKGQPREPQVYTLPPSREEMTKNQVSLTCLVKGFYPSDIAVEWESNGQPENNYKTTPPVLDSDGSFFLYSKLTVDKSRWQQGNVFSCSVMHEALHNAYTQKSLSLSPGK light: ETVLTQSPATLSLSPGERATLSCRASESVSTLMHWYQQKPGQQPRLLIYGASNLESGVPARFSGSGSGTDFTLTISSLEPEDFAVYFCQQSWNDPWTFGGGTKVEIKGGSGGGGSGGATQLTQSPSLSASVGDRVTITCRASESVSTHMHWYQQKPGKQPKLLIYGASNLESGVPSRFSGSGSGTDFTLTISSLQPEDFATYFCQQSWNDPFTFGQGTKLEIKRTVAAPSVFIFPPSDEQLKSGTASVVCLLNNFYPREAKVQWKVDNALQSGNSQESVTEQDSKDSTYSLSSTLTLSKADYEKHKVYACEVTHQGLSSPVTKSFNRGEC",Potency IC50 (nM) HMVEC-d hVEGF165,[2],0.743 nM
same,Potency IC50 (nM) NIH-3T3 hPDGF-BB,[3],0.38 nM
"1B10.1_GS_9E8.4 (bispecific antibody, human IgG1, kappa, L234A L235A) heavy: EVQLVESGGGLVQPGGSLRLSCAASGFSFSKYDMAWFRQAPGKGLEWVASITTSGVGTYYRDSVKGRFTVSRDNAKSTLYLQMNSLRAEDTAVYYCARGYGAMDAWGQGTTVTVSSGGGGSGGGGSEVTLRESGPALVKPTQTLTLTCTFSGFSLSTYGMGVGWIRQPPGKALEWLANIWWDDDKYYNPSLKNRLTISKDTSKNQVVLTMTNMDPVDTATYYCARIESIGTTYSFDYWGQGTMVTVSSASTKGPSVFPLAPSSKSTSGGTAALGCLVKDYFPEPVTVSWNSGALTSGVHTFPAVLQSSGLYSLSSVVTVPSSSLGTQTYICNVNHKPSNTKVDKKVEPKSCDKTHTCPPCPAPEAAGGPSVFLFPPKPKDTLMISRTPEVTCVVVDVSHEDPEVKFNWYVDGVEVHNAKTKPREEQYNSTYRVVSVLTVLHQDWLNGKEYKCKVSNKALPAPIEKTISKAKGQPREPQVYTLPPSREEMTKNQVSLTCLVKGFYPSDIAVEWESNGQPENNYKTTPPVLDSDGSFFLYSKLTVDKSRWQQGNVFSCSVMHEALHNAYTQKSLSLSPGK light: DIQMTQSPSSLSASVGDRVTITCKASQDIDDYLSWYQQKPGKSPKLVIYAATRLADGVPSRFSGSGSGTDYTLTISSLQPEDFATYYCLQSSSTPWTFGGGTKVEIKGGSGGGGSGGEFVLTQSPGTLSLSPGERATLSCERSSGDIGDSYVSWYQQKPGQAPRLVIYADDQRPSGIPDRFSGSGSGTDFTLTISRLEPEDFAVYYCQSYDINIDIVFGGGTKVEIKRTVAAPSVFIFPPSDEQLKSGTASVVCLLNNFYPREAKVQWKVDNALQSGNSQESVTEQDSKDSTYSLSSTLTLSKADYEKHKVYACEVTHQGLSSPVTKSFNRGEC",Potency IC50 (nM) HMVEC-d hVEGF165,[2],0.127 nM
same,Potency IC50 (nM) NIH-3T3 hPDGF-BB,[3],0.678 nM
